In PMC6686729, “RGD conjugated cell uptake off to on responsive NIR-AZA fluorophores: applications toward intraoperative fluorescence guided surgery” (Chemical Science, 2019):

What was measured:
[1] = pH titration of fluorescence intensity, sigmoidal plot fit (pKa); type: physicochemical
Source text: In order to display the responsive nature and full emissive potential of 2 and 3, their DMEM solutions were sequentially acidified (Fig. 4a and b). This caused a successive increase in emission intensity as acidity increased, with a maximum intensity reached at approximately pH 4. […] While it is recognized that the extracellular matrix of a solid tumour can be more acidic than normal tissue, intracellular organelles such as late endosomes and lysosomes are also acidic ranging between pH 4.5 and 5.5.[27] Encouragingly, the measured fluorescence enhancement factor (FEF) for 2 and 3 between pH 7.2 and that of 4.5 (as found in lysosomes) was 23 and 18 respectively (Fig. 4c). […]
Fig. 4 Responsive emission characteristics of 2 and 3 (5 μM) in DMEM/10% FBS solutions containing TX100. (a) Fluorescence spectra of 2 at pH ranging from 8.0 (black) to 2.0 (red); inset sigmoidal plot fit of integrated fluorescence intensity versus pH. (b) Fluorescence spectra of 3 at pH ranging from 8.0 (black) to 2.0 (red); inset sigmoidal plot fit of integrated fluorescence intensity versus pH. […]
Fig. S1. Absorption and fluorescence pH titration of 1
Fig. S1 Absorbance (left) and fluorescence (right) spectra of 1 (5 μM) in PBS buffer/TX-100 (4 mM) starting at pH 8 (grey line) to pH 2 (red line). Fluorescence excitation: 630 nm; range: 650- 900 nm; […]
(§1) Fig. S2. Absorption pH titration and fluorescence spectra of 2 […]

[2] = Photophysical properties (absorption, emission, FEF, quantum yield) in DMEM/10% FBS; type: physicochemical
Source text: The photophysical properties of the bio-responsive fluorophores 2 and 3 and the always-on control 10 were studied in solutions of Dulbecco's modified eagle's cell medium (DMEM) containing 10% fetal bovine serum (FBS). Absorption and emission wavelengths are listed in Table 1 and are, as would be expected for the NIR-AZA class, in the 690–730 nm range. At pH 7.4 fluorescence intensity of always-on10 was 17- and 15-fold greater than 2 and 3 respectively (Table 1). This illustrates both the emissive potential of the peptide conjugates and the ability to quench the bio-responsive derivatives in relevant biological media (Table 1, spectra and inset). […]
as §1
Fig. S2 Absorbance (left) spectra of 2 (5 μM) in DMEM (10% FBS) /TX100 (4 mM) starting at pH 8 (grey line) to pH 3 (red line). Fluorescence (right) spectra of series dilution (3 µM, 1.8 µM, 1.3 µM, 0.5 µM) in DMEM (10% FBS) /TX100 (4 mM) at pH=3. Fluorescence excitation: 630 nm; range: 650- 900 nm; slit widths: 5/5. Inset: Integrated fluorescence intensity vs. Absorbance; calculated fluorescence quantum yield Φ = 0.16. […]
Fig. S3. Absorption pH titration and fluorescence spectra of 3 […]
Fig. S3 Absorbance (left) spectra of 3 (5 μM) in DMEM (10% FBS) /TX100 (4 mM) starting at pH 8 (grey line) to pH 3 (red line). Fluorescence (right) spectra of series dilution (3.5 µM, 2.6 µM, 1.3 µM, 0.8 µM) in DMEM (10% FBS) /TX100 (4 mM) at pH=3. Fluorescence excitation: 630 nm; range: 650- 900 nm; slit widths: 5/5. Inset: Integrated fluorescence intensity vs. Absorbance; calculated fluorescence quantum yield Φ = 0.18.
Fig. S4. Absorption and fluorescence spectra of 10 at pH 7.4, 6.6, 5.6 and 3.
Fig. S4 Absorbance (left) and fluorescence (right) spectra of 10 (5 μM) in DMEM (10% FBS) /TX100 (4 mM). Fluorescence excitation: 630 nm; range: 650- 900 nm; slit widths: 5/5.

[3] = system: MDA-MB 231 subcutaneous tumour; assay: In vivo tumour fluorescence imaging, tumour-to-background ratio (TBR) over 96 h; parameters: species or system Balb/C nu/nu mice; details: 2 mg kg–1, n = 4 (n = 2 for 10)
Procedure: Each fluorophore was subjected to in vivo analysis using a standard dosing set at 2 mg kg^–1 delivered by i.v. tail vein injection. Post injection, images were acquired initially at regular intervals between 10 min and 9 h and thereafter less frequently at 24, 48 and 96 h. The method used for image analysis was consistent across all experiments with TBR values calculated by measuring tumour ROI fluorescence against an average of three equally sized background ROI regions, two of which were close to and one distant from the tumour (Fig. S11 ^†). […] As such, we adopted this value as a point of reference to compare result from different fluorophores and different time points for individual fluorophores. […]
All in vivo experiments were conducted in University College Dublin, Ireland in compliance with relevant laws, and their institutional guidelines for animal protocols and the guidelines issued b y the Ethical Committee of University College Dublin and under license from the Health Products Regulatory Authority (HPRA), Dublin, Ireland which approved the experiments.
All in vivo work was carried out in the biomedical facility, University College Dublin (UCD) . MDA-MB-231, a human breast adenocarcinoma cell line, was obtained from Caliper Life Sciences. Cells were maintained as a mono-layer culture in Minimum Essential Medium containing 10% (v/v) fetal bovine serum and supplemented with 1% (v/v) L–glutamine, 50 U/mL penicillin, […] streptomycin, 1% (v/v) sodium pyruvate and 1% (v/v) non-essential amino acids. All cells were maintained in 5% CO2 (v/v) and 21% O2 (v/v) at 37°C.
Balb/C nu/nu mice (Harlan) were housed in individually ventilated cages in temperature and humidity-controlled rooms with a 12 hours light dark cycle. 2-5 Million MDA-MB 231 cells in 100 μL of a DPBS:Matrigel (50:50) solution were injected subcutaneously behind the fore limb of the 5-week-old mice using a 25-g needle. Tumors reached an average diameter of 6 mm prior to imaging […]
images taken at early time points with less frequent imaging thereafter. Images were taken using the settings of excitation 675 nm (30 nm band pass filter) and emission 720 nm (20 nm band pass filter) narrow band pass filters and were analyzed using Living Image Software v4.7.2 (Caliper LS). The tumor-to-background ratio (TBR) was calculated by using the measured fluorescence signal in the ROIs of tumor target and average background. […]
The fluorescence intensity of the animal was measured and normalized to photons per second per centimeter squared per steradian per micro-Watt per centimeter squared [(p/sec/cm2/sr) /(μW/cm2)].
Mice were injected via tail vein (2 mg/kg) as follows; [n = 4 for 1 (3.7 nmol)], [n = 4 for 2 (13.2 nmol)], [n = 4 for 3 (10.5 nmol)], [n = 2 for 10 (10.1 nmol)], anesthetized, and imaged at various time points post injection. All fluorescence images were acquired with two second exposure (f/stop = 2).
Color scale was adjusted and kept same for each experiment to show good contrast of target tumor region to background over time. The fluorescence intensity was not affected by color scale adjusting. […]
For RGD competitive binding study, mice injected with 2 (13.2 nmol) with or without pre-injection with RDG 5 (89.5 nmol) and were imaged at 10 min interval for 3 hours, and then immediately euthanized by inhalation of carbon dioxide. For quantitative comparison, regions of interests (ROIs) […]

MDA-MB 231 cells = assay: Live MDA-MB 231 cell NIR-fluorescence/DIC time-lapse imaging; type: cell-based, human; details: live MDA-MB 231 cells, 1–5 μM, 37 °C
Procedure: With the responsive nature of 2 and 3 established, the potential for translation of these constructs to real-time live cell imaging was investigated. In order to illustrate the imaging effect of the bio-responsive characteristics of 2 and 3 the always-on10 was also imaged as a positive control. For live MDA-MB 231 cell experiments, chamber slide seeded cells were placed in a widefield microscope surrounded by an incubator to maintain the temperature at 37 °C and CO2 at 5%, following which an imaging field of view containing viable cells was chosen. The cells were treated with either 2, 3 or 10 (1–5 μM) and time-lapse NIR-fluorescence and differential interference contrast (DIC) images were acquired over 120 min. […] As expected, the […] morphology of the cell line is distinguishable by its membrane filopodia projections which is characteristic of its metastatic invasive phenotype (Movie S1 ^†). After 60 min incubation, both cell membrane and intracellular vesicle staining of the cytoplasm could be observed, both of which persisted at 120 min (Fig. 5b and c). […]
Fluorescence and DIC images were acquired on an Olympus IX73 epi-fluorescent microscope fitted with an Andor iXon Ultra 888 EMCCD and controlled by MetaMorph (v7.8). Fluorescence illumination was provided by a Lumencor Spectra X light engine containing a solid-state light source. […]

Molecule: N=C(N)NCCC[C@@H]1NC(=O)[C@H](CCCCNC(=O)COCCOCCNC(=O)COCCOCCNC(=O)COc2ccc(-c3cc(-c4ccccc4)c4n3[B-](F)(F)[N+]3=C(c5ccc(O)c([N+](=O)[O-])c5)C=C(c5ccccc5)C3=N4)cc2)NC(=O)[C@@H](Cc2ccccc2)NC(=O)[C@H](CC(=O)O)NC(=O)CNC1=O [compound 2]
- pKa [1]: 4.9

Molecule: CC(=O)N[C@@H](CSC1CC(=O)N(CCC(=O)NCCOc2ccc(-c3cc(-c4ccccc4)c4n3[B-](F)(F)[N+]3=C(c5ccc(O)c([N+](=O)[O-])c5)C=C(c5ccccc5)C3=N4)cc2)C1=O)C(=O)NCCCC[C@@H]1NC(=O)[C@H](CC(=O)O)NC(=O)CNC(=O)[C@H](CCCNC(=N)N)NC(=O)[C@@H](NC(C)=O)CSSC[C@@H](C(N)=O)NC(=O)[C@H](CC(=O)O)NC(=O)[C@@H]2CCCN2C(=O)CNC1=O (stereo partly shown) [compound 3]
- pKa [1]: 4.9

Molecule: cCRGDKGPDC (disulfide) [compound 10, iRGD conjugated always-on NIR-AZA control with alkylsulfonic acid group, from fluorochrome 9 and peptide 8]
- absorption or emission spectral changes between pH 7.2 and 4.5 ([2]; 5 μM in DMEM (10% FBS)/TX100 (4 mM)): no absorption or emission spectral changes
- λ max flu (nm) ([2]; DMEM/10% FBS with 4 mM TX-100, 5 μM): 733 nm
- FEF pH 7.4/4.5 (fluorescence enhancement factor) ([2]; DMEM/10% FBS with 4 mM TX-100, 5 μM, pH 7.4 vs 4.5): 1.0
- λ max abs (nm) pH 4.5 ([2]; DMEM/10% FBS with 4 mM TX-100, pH 4.5): 703 nm
- λ max abs (nm) pH 7.2 ([2]; DMEM/10% FBS with 4 mM TX-100, pH 7.2): 705 nm
- fluorescence intensity of always-on 10 relative to 2 ([2]; pH 7.4, DMEM/10% FBS, 5 μM): 17 fold
- fluorescence intensity of always-on 10 relative to 3 ([2]; pH 7.4, DMEM/10% FBS, 5 μM): 15 fold
- TBR ([3]; 10 to 60 min (first 60 min) post i.v. tail vein injection): below 1.3
- TBR ([3]; 3 h post i.v. injection): 1.5
- TBR ([3]; 6 h post i.v. injection): 1.9
- TBR ([3]; 24 h post i.v. injection): above 2
- TBR ([3]; 48 h post i.v. injection): 2
- cell staining pattern over 120 min (MDA-MB 231 cells; 5% CO2, time-lapse over 120 min): first showed plasma membrane before internal organelle staining
- cell staining in the first 15 min of incubation (MDA-MB 231 cells; 5% CO2, widefield NIR-fluorescence and DIC): fluorescence specific to the plasma membrane
